According to patent US20150165065A1 (AVIDBIOTICS, published 2015):
Residue numbers refer to the chain shown, from its start.

B1: soluble MICA generated from pKK38 (loop 1 insert 3.3) (designed binder)
chain: HHHHHHEPHSLRYNLTVLSWDGSVQSGFLTEVHLDGQPFLRCDRQKCRAKPQGQWAEDVLGNKTWDRETRDLTGNGKDLRMTLAHIKDQKEGLHSLQEIRVCEIHEDNSTRSSQHFYYDGELFLSQNLETEEWTMPQSSRAQTLAMNVRNFLKEDAMKTKTHYHAMHADCLQELRRYLKSGVVLRRTVPPMVNVTRVPRGDSDLTVTCRASGFYPWNITLSWRQDGVSLSHDTQQWGDVLPDGNGTYQTWVATRICQGEEQRFTCYMEHSGNHSTHPVPSGK
notes: From pKK34 (His6, Glu125); secreted by 293T cells; also called 1-3.3
B2: soluble MICA generated from pKK39 (loop 1 insert 3.4) (designed binder)
chain: B1 chain with V197S, P198A, L204H, T205R
notes: From pKK34 (His6, Glu125); secreted by 293T cells; also called 1-3.4
B3: soluble MICA generated from pKK42 (loop 1 insert 5.3) (designed binder)
chain: B1 chain with R196H, V197L, P198A, S202D, D203L, L204T, T205Y
notes: From pKK34 (His6, Glu125); secreted by 293T cells; also called 1-5.3
B4: soluble MICA generated from pKK40 (loop 1 insert 5.1) (designed binder)
chain: B1 chain with R196V, V197T, P198R, R199G, G200D, D201T, S202F, D203T, L204Q, T205S
notes: From pKK34 (His6, Glu125); secreted by 293T cells; also called 1-5.1
B5: soluble MICA generated from pKK41 (loop 1 insert 5.2) (designed binder)
chain: HHHHHHEPHSLRYNLTVLSWDGSVQSGFLTEVHLDGQPFLRCDRQKCRAKPQGQWAEDVLGNKTWDRETRDLTGNGKDLRMTLAHIKDQKEGLHSLQEIRVCEIHEDNSTRSSQHFYYDGELFLSQNLETEEWTMPQSSRAQTLAMNVRNFLKEDAMKTKTHYHAMHADCLQELRRYLKSGVVLRRTVPPMVNVTRGDTFTQSVTCRASGFYPWNITLSWRQDGVSLSHDTQQWGDVLPDGNGTYQTWVATRICQGEEQRFTCYMEHSGNHSTHPVPSGK
notes: From pKK34 (His6, Glu125); secreted by 293T cells; also called 1-5.2
B6: soluble MICA generated from pKK52 (tight loop 1 insert T-3.1) (designed binder)
chain: HHHHHHEPHSLRYNLTVLSWDGSVQSGFLTEVHLDGQPFLRCDRQKCRAKPQGQWAEDVLGNKTWDRETRDLTGNGKDLRMTLAHIKDQKEGLHSLQEIRVCEIHEDNSTRSSQHFYYDGELFLSQNLETEEWTMPQSSRAQTLAMNVRNFLKEDAMKTKTHYHAMHADCLQELRRYLKSGVVLRRTVPPMVNTSRGDHPRTQCRASGFYPWNITLSWRQDGVSLSHDTQQWGDVLPDGNGTYQTWVATRICQGEEQRFTCYMEHSGNHSTHPVPSGK
notes: From pSW324 (from pKK34: His6, Glu125); secreted by 293T cells; also called 1-T-3.1
B7: soluble MICA generated from pKK54 (tight loop 1 insert T-3.3) (designed binder)
chain: B6 chain with T194R, S195V, R196P, G197R, D198G, H199D, P200S, R201D, T202L, Q203T
notes: From pSW324 (from pKK34: His6, Glu125); secreted by 293T cells; also called 1-T-3.3
B8: soluble MICA generated from pKK53 (tight loop 1 insert T-3.5) (designed binder)
chain: B6 chain with T194G, H199S, P200L, R201I, T202M, Q203H
notes: From pSW324 (from pKK34: His6, Glu125); secreted by 293T cells; also called 1-T-3.5
B9: soluble MICA generated from pKK55 (tight loop 1 insert T-5.1) (designed binder)
chain: B6 chain with T194V, S195T, H199T, P200F, R201T, T202Q, Q203S
notes: From pSW324 (from pKK34: His6, Glu125); secreted by 293T cells; also called 1-T-5.1
B10: soluble MICA generated from pKK56 (tight loop 1 insert T-5.3) (designed binder)
chain: B6 chain with T194H, S195L, R196A, G197R, D198G, H199D, P200D, R201L, Q203Y
notes: From pSW324 (from pKK34: His6, Glu125); secreted by 293T cells; also called 1-T-5.3
B11: soluble MICA generated from pKK37 (loop 1 insert 3.2) (designed binder)
chain: HHHHHHEPHSLRYNLTVLSWDGSVQSGFLTEVHLDGQPFLRCDRQKCRAKPQGQWAEDVLGNKTWDRETRDLTGNGKDLRMTLAHIKDQKEGLHSLQEIRVCEIHEDNSTRSSQHFYYDGELFLSQNLETEEWTMPQSSRAQTLAMNVRNFLKEDAMKTKTHYHAMHADCLQELRRYLKSGVVLRRTVPPMVNVTRTSRGDHPRTQVTCRASGFYPWNITLSWRQDGVSLSHDTQQWGDVLPDGNGTYQTWVATRICQGEEQRFTCYMEHSGNHSTHPVPSGK
notes: From pKK34 (His6, Glu125); secreted by 293T cells; also called 1-3.2
B12: soluble MICA generated from pKK44 (loop 1 insert extended 3.2sp) (designed binder)
chain: HHHHHHEPHSLRYNLTVLSWDGSVQSGFLTEVHLDGQPFLRCDRQKCRAKPQGQWAEDVLGNKTWDRETRDLTGNGKDLRMTLAHIKDQKEGLHSLQEIRVCEIHEDNSTRSSQHFYYDGELFLSQNLETEEWTMPQSSRAQTLAMNVRNFLKEDAMKTKTHYHAMHADCLQELRRYLKSGVVLRRTVPPMVNVTSGGSGGGSTSRGDHPRTQSGGSGGGVTCRASGFYPWNITLSWRQDGVSLSHDTQQWGDVLPDGNGTYQTWVATRICQGEEQRFTCYMEHSGNHSTHPVPSGK
notes: From pKK34 (His6, Glu125); secreted by 293T cells; also called 1-3.2sp

target: T1, integrin αVβ5 (UniProt P06756 31-992; P18084 24-719); assay: ELISA, coated integrin, anti-MICA-HRP
T1 construct: Coated on the ELISA plate
Experimental: (§1) The ability of the soluble MICA molecules in each of the concentrated supernatants to bind target molecules was assayed by an ELISA using the intended target proteins, integrin αVβ3 or αVβ5, as capture agents on the ELISA plate. After the respective integrins were adhered to the bottoms of the wells of the ELISA plate, the wells were washed and blocked, as well known in the field. Each sample (100 μl) of soluble MICA produced and secreted by 293T cells was added to wells containing αVβ3 or αVβ5, incubated and washed. The soluble MICA molecules captured by the integrins were detected by HRP-conjugated antibody to human MICA developed with Ultra TMB-ELISA substrate and the optical densities read. The quantity of soluble MICA in each sample was determined by the MICA-specific ELISA. […] The ELISA signal from a non-binding, negative control MICA (generated by pSW273) was subtracted from each integrin binding signal.

T1 sequence (P06756 31-992, chain 1 of 2): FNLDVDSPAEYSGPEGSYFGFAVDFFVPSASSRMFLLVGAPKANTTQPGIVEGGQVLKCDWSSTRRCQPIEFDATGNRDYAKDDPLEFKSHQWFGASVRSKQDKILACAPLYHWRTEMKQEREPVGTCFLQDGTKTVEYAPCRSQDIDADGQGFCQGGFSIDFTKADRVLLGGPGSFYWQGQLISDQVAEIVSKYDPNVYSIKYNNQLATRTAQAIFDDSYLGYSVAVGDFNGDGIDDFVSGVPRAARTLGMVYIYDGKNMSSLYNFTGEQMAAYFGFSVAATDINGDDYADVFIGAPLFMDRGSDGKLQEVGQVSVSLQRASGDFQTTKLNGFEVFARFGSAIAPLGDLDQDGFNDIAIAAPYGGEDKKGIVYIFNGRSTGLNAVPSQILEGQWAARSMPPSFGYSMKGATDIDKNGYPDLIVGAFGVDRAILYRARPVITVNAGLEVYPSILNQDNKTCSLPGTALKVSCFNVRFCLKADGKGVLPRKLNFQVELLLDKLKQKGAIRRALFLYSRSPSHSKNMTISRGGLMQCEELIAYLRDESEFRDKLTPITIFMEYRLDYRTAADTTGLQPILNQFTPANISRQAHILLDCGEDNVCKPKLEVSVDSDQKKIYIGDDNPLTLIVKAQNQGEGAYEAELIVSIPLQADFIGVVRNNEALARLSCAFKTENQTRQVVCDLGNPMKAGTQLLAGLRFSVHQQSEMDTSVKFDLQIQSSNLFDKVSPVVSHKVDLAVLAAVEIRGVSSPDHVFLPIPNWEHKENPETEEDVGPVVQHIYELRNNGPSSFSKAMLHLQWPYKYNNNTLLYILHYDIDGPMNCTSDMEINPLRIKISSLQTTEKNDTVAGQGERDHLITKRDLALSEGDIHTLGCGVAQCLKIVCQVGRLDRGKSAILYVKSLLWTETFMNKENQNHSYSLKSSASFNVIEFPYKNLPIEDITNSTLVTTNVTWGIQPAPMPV
T1 sequence (P18084 24-719, chain 2 of 2): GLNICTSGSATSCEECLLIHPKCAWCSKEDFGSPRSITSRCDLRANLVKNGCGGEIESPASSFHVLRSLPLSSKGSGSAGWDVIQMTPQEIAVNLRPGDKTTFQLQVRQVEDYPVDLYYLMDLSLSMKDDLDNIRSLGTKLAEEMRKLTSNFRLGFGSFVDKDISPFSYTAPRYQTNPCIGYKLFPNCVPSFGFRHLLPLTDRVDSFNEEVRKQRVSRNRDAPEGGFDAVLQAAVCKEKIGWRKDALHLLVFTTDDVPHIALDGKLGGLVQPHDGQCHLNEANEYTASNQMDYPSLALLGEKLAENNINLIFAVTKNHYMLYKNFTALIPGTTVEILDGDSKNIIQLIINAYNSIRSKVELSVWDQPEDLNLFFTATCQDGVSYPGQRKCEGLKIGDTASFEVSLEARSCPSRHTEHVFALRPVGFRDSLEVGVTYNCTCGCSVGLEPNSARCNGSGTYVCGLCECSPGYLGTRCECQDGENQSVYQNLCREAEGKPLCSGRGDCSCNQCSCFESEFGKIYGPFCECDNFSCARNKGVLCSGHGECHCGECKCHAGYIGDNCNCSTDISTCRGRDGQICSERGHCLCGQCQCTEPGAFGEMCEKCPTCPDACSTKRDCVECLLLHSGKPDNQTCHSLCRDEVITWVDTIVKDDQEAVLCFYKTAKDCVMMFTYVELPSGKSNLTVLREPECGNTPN

Row | Binder | αvβ5 signal [OD] | αvβ5 signal/ng [signal/ng MICA]
1 | B1 | 0.291 | 30.7
2 | B2 | 0.528 | 19.7
3 | B3 | 0.565 | 22.8
4 | B4 | 0.675 | 27.1
5 | B5 | 0.65 | 22.4
6 | B6 | 0.485 | 12.6
7 | B7 | 0.175 | 19.3
8 | B8 | 0.8 | 22.8
9 | B9 | 0.588 | 17.4
10 | B10 | 0.528 | 18.3
11 | B11 | 0.779 | 22.4
12 | B12 | 0.46 | 10

target: T2, integrin αVβ3 (UniProt P06756 31-992; P05106 27-718); assay: ELISA, coated integrin, anti-MICA-HRP
T2 construct: Coated on the ELISA plate
Experimental: as §1

T2 sequence (P06756 31-992, chain 1 of 2): as the sequence (P06756 31-992, chain 1 of 2) above
T2 sequence (P05106 27-718, chain 2 of 2): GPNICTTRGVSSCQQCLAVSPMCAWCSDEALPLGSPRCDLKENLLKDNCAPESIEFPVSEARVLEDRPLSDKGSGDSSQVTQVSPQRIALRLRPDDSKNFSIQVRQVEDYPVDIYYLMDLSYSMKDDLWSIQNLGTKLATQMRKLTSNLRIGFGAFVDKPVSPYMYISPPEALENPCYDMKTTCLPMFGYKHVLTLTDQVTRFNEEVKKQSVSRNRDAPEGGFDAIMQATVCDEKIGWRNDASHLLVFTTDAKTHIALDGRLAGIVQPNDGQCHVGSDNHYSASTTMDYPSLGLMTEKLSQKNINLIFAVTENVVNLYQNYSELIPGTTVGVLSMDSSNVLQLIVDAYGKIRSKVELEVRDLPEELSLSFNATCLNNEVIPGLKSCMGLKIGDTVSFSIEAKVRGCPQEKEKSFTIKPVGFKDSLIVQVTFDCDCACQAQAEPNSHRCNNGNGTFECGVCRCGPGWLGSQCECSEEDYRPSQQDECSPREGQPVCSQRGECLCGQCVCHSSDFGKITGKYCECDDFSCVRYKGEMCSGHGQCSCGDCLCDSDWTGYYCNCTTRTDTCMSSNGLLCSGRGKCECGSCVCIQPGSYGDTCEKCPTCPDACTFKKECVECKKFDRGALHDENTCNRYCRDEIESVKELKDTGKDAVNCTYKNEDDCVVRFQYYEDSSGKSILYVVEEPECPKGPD

Row | Binder | αvβ3 signal [OD] | αvβ3 signal/ng [signal/ng MICA]
13 | B1 | 0.291 | 30.7
14 | B2 | 0.482 | 18
15 | B3 | 0.526 | 21.2
16 | B4 | 0.485 | 19.5
17 | B5 | 0.516 | 17.7
18 | B6 | 0.391 | 10.1
19 | B7 | 0.177 | 19.5
20 | B8 | 0.659 | 18.7
21 | B9 | 0.475 | 14
22 | B10 | 0.473 | 16.4
23 | B11 | 0.777 | 22.4
24 | B12 | 0.41 | 8.92
